The DeepSol protein solubility set

Assay: soluble on expression in E. coli; label from the status in PepcDB or PDB records
For “GPGSMAHCCFLIYPLAKVADESFLQLLFDDSVKRSAFLGYPPRRFAIVELEESQNEAVLRAIGARDDDGRVEAREDNADTPFVDLFTRTGAKKGTDRNEPIGLRMGCIPHLSQVRFRRTYLRVIVSPVTIDELFGCVQKDSNHVKKEKRSLKRSRHTDEDAGPWVPRWPVANGDPTLAGRVEVVSMTGASRAGLSGDPEDERYREPYAECSGGPVCNMSPPKTFLSDDSAGDAAGRRALDVSVQNLIRELGFDK”, the “soluble on expression in E. coli” value was “not soluble”. For “MDYTPHTEEEIREMLRRVGAASLEDLFAHLPKEILSPPIDLPEPLPEWKVLEELRRLAAQNLPAHKAFLGGGVRSHHVPPVVQALAARGEFLTAYTPYQPEVSQGVLQATFEYQTMIAELAGLEIANASMYDGATALAEGVLLALRETGRMGVLVSQGVHPEYRAVLRAYLEAVGAKLLTLPLEGGRTPLPEVGEEVGAVVVQNPNFLGALEDLGPFAEAAHGAGALFVAVADPLSLGVLKPPGAYGADIAVGDGQSLGLPMGFGGPHFGFLATKKAFVRQLPGRLVSETVDVEGRRGFILTLQAREQYIRRAKAKSNITTNAQLTALMGAMYLAALGPEGLREVALKSVEMAHKLHALLLEVPGVRPFTPKPFFNEFALALPKDPEAVRRALAERGFHGATPVPREYGENLALFAATELHEEEDLLALREALKEVLA”, the “soluble on expression in E. coli” value was “soluble”. In the case of “MNKEMTLLPPPELVQYVGGDFKKVGKEFLKHFIQIGALKSNEKVLDVGCGVGRMAVPLMNYLNDDGAYYGFDLFKDGITWCQNNISTMRNNFHFEHVDIYNQFYNPEGKEDASQYRFPYEDGTFDFIFLTSVFTHLLPKELEHYVSEIVRVLKKDGRCFITFFLINPESSYYLNAGQSTLGFYHRIENCYVVNKDIPNFAVAYPETDICNLLNKYGLEIINKPHYGLWCGRHEYTSYQDIVLTKKSLEHHHHHH”, the “soluble on expression in E. coli” value was “not soluble”. With “QVEVIVMMHGRSTATSMVETVQELLSIESGIALDMPLTVEVKAMYEKLKQTVVKLNPVKGVLILSDMGSLTSFGNILTEELGIRTKTVTMVSTPVVLEAMRKASLGRGLEDIYQSCEQLFENKYKAHVLRAKP” the “soluble on expression in E. coli” value was “not soluble”. For “RATPRMEDLASTDLSTRATGSINAVYFTNWGIYGRNFQPADLQASKILHVLYSFMNLRVDGTVYSGDTYADLEKHYSDDSWNDIGTNAYGCVKQLYKLKKANRSLKIMLSIGGWTWSTNFPAAASTEATRATFAKTAVEFMKDWGFDGIDVDWEYPASETDANNMVLLLQRVRQELDSYSATYANGYHFQLSIAAPAGPSHYNVLKLAQLGSVLDNINLMAYDYAGSWDSVSGHQTNLYPSTSNPSSTPFSTKAAVDAYIAAGVPASKIILGMPIYGRAFVGTDGPGKPYSTIGEGSWESGIWDYKVLPKAGATVITDSAAGATYSYDSSSRTMISYDTPDMVRTKVSYAKGLGLGGSMFWEASADKTGSDSLIGTALSSMGSHDSTQNCLSYPNSKFDNIKNSLS”, the “soluble on expression in E. coli” value was “soluble”. With “MGSDKIHHHHHHMYKWGWTMTSSVAQLLSTPVEEVAGKEVPVLDKDFSLAEILKAVEKAKIDRAFLTEGNSIRGVLTFRDILDKIATVRTKQAYIGGLHGSSFMNEPVKYVEVGREVSHALETMANGMFTSVPVVGAGGVVEGGITRFELARLVKDLEISQDTSVRDVMRTFLVSVNLQTRILHVRQLLYEYDISVIPVMDEGRFVGVVGLDELMAIIKSFYNLARGEPKRHTPLKYVIVADAIRMRPPVVTPDASLAEAAEKMLEKRYRAVVVVDSEKPVGFTSGLELANFLLTKKSS” the “soluble on expression in E. coli” value was “not soluble”. With “MLSKSKRSCRRRETLRIGEKMSAPITNLQAAQRDAIMNRPAVNGFPHLAETLRRAGVRTNTWWLPAMQSLYETDYGPVLDQGVPLIDGVAEVPAFDRTALVTALRADQAGQTSFREFAAAAWRAGVLRYVVDLENRTCTYFGLHDQTYMEHYAAVEPSGGAPTS” the “soluble on expression in E. coli” value was “not soluble”. For “MQVPLNSADIDYAQFKDANGQEVLVIADGGKLKAFDGTKVYEIVPAPNESGYPANDLANINNKGLKGCVVHNTRVVIWDGSDTIWHSKIGYYDYFGQTDYQRFVRENDYVQTCVTFAGALLVFMRRHIGVLFGHDVEDWSQGFLDTQNGCINPKTVQTVTHPDGRQEVFYLSDNGVHAVYTIDTIEMDVSNRYSTRSVTEGLIDWKALGVTKDEWKRATAYFYDGRYWLIYPKGSEWRGLVYDTRLQAWFPINNVKANSFYHDEDYFYFAGDDGHLKVFDDTLYSDWNDKNKTSGTPINFYWYSKLLTPKLTGYDHFWDVLMIEAKQFPQKSALDVEVNTYLGRFTQEKAVKTASLVWGVTEWGEAQWQNPFLTEAVNNAKRLPTFLKGQYAQIKLSNNRDEPVEIYSLKYEVRLME”, the “soluble on expression in E. coli” value was “not soluble”. In the case of “MGSDKIHHHHHHMTSQKYQSKTLKIAVVGDIHDQWEVEDGMALKHLGVDLVLFVGDFGNESVEVVRAIASLNIPKAAVMGNHDAWYTATEWGRKKCPYDRTKEDWVQEQLDLLGSAHVGYGKLDFPEWNLTVVGGRPFSWGGHEWRFADICKDRYGVTTLEESAQRIFASVKSAACETIIFLGHNGPSGLGDRPEDPCGKDWHPIGGDFGDPDLAEAISLTMTTGKQIALVTFGHMHHSLRHTKKELRKPIFKSPEGIVYLNAASVPRIVEGESGKLRNFSLVSLEAGEVTQASLIWVGEDFQVAKEEIFYERSTSVVPSV”, the “soluble on expression in E. coli” value was “not soluble”. In the case of “MNRWQRAWRHLCSTGWQARRQFPAAQLKRLERQIAESERAHRGQLRFVVESALDWRAAWRGMSARERALQWFGELRVWDTEDNTGVLVYLLLAERRIEIVADRGIHRLAPAGEWAGICADMQRAFAAGAHVEGLESGLRRIHALLLAHAPRNGEPFVNELPDQVVVRLEHHHHHH”, the “soluble on expression in E. coli” value was “not soluble”. With “MATAETSVLIGYLSDYGYSDRLSQAIGRGLVKTGVAVEMVDLRAVDPQELIEAVSSARGIVLGTPPSQPSEAVATALSTIFAAAHNKQAIGLFDSYGGDDEPIDALLAQFRNLGLHTAFPPIRVKDQPTEAIYQQCEESGTDLGQWLTRADAIQTMKSLEHHHHHH” the “soluble on expression in E. coli” value was “not soluble”. For “SLVNPNQFKPLIVEQAKKQTGLDLVIEGDIGWQFFPSIGFELGKTELKNPQGFASPNLFKVESVGIDVSVMPLLDKQLKIGNIRLDGAEFHLETLKDGRSNLDALTQAQSKPASAPATTDSAPASQPSSSEPAAAWSIELGGVSVSNAVLEITDKKAGSHTKLYDVQLSVAEFVPDNWTKATFAAKGDKDQQKFAAQGEAEVRLSADFKQYALRNINLDASFSDPSNQIDSAKLKLDTFEFDKANALTFSVAGKAADMKLNAQGSASLMVNQAISKVGLDALKLQAELEGAALPQSPMKLSLDSQIAFDLTQNHLSVLLNKLTANALSFDGKADVTLADIPKVRFNLHSPEIDLDAFLGTKAQESQPAPAKEAAASSSSAPATNAPAEVEPDLSALKALDVAGEISIDKFKASNAHLQNVKANFAVNRGVVDLKSFTANLYQGSVQASAQVDARKTPATYSVKKQIKGVQVKPLLKDVLNNEMLEGTGNIDVNVQGQSLTPSGIQKNLVGTVAINFADGAVKGINVAHLIRTHYAKIKGQNVEEADAVKKTDFSAMTTTLKLNKGEVTTNDLNMQSPLLRIHGEGKANYLQQNVDFLVRTSIVGTLEGQGGKSLDELRDVTIPINISGAWSDPKFRLVFDDVLKQKAKKEVDRGVEKLTDKIKDEDTKKAVDGLLKGLFN”, the “soluble on expression in E. coli” value was “soluble”. With “MDITPALTEMELDHKPTCETVPGLPQKKHYRQRAHSNPHSDHDIEYPLTPNHMDWTKYYGDYTKGRQVDFADIGCGYGGLLMRLSPKYPDNLMIGMEIRVKVSDYVNEKIQALRKHHAEAGHYRNVAVLRSNAMKYMPNYFHKGQLSKMFFLFPDPHFKNKKHKWRIITPTLLSEYAYVLREGGIIYTITDVKDLHEWMVKHLSEHPLFERLTEEEMKKDPIVEMLFESTEEGQKVTRNDGGKWPAIFRRLPNPAL” the “soluble on expression in E. coli” value was “not soluble”. In the case of “MPDHLQPTLFQDAGKTQASDTFQELLASIAARPKYLPDWPESHRALPNEILRSALFNCRNRNLPRMFLKEVEIAVIGDGQVIYRGEELRQDDELVWMHLMHLIKKSPLGECVEFTPYSFIKALGWPIKGQNYDRLRNCLSRMQATALRIQSKRLHSFVSISLIQKFLSRNERNESLTRWQVWVGKEMQLLFDEEFLTRVMWETRRSLPDGIASKLFGYWASHRKPYPVKVETLLKLCGSGMQTKHFKIELKRALDLLKQSGFLEAWELKDELVVVVRRH”, the “soluble on expression in E. coli” value was “not soluble”. With “MGSDKIHHHHHHMDIREKKTPPTLAPGQTSNPATSLPPRTVEGLRDLVVSIGRDQAEVKLGAKALTVLAHLVERPEEVAVRTITDLANSLDVNASTLTRLATRLGFEGFAEFQGVFRNSMAQRHRHFYSQQAERLVGADNTGMPGGVSPEVGAVVQLAHESIQNVERFVARLSAEELRGAAELLAEAPRVRVHGLRQFSALASFLCYGLSMIRSDVGLLDAHGLGVAEGLAQLQRGDVVVVMSVAPYTRSVAEAAAAAAESGLTVIAITDTSASPLAAAARHAFFIPHESSFFSNSMGAYLIFCEGLLNLAATKLGKRSLRALARREQMIAALDIETE” the “soluble on expression in E. coli” value was “not soluble”. For “MLWNVDLLKTLNIMYNKILFMNNSFFGRFKKNDNQVIEEQPPVWEDRIFWVETLQKIAFPVLNNLKKESLKKNMSIESFSSESNKFAHLGAFSNVFNGIAPWLELGPDESEEGKIREKYIVLTLKAISNAVNPNSKDYILFTEPKQSLMSMALFAQGLLRSKTQIWNNLPMDVQARVIYELKNTRIIAPFENHWLLFTSMIEATLLEFTGECDRERLTYSIRKFRDEWYLGDAIYADGPEFDVNYYNSIFIHPMLNDILKVMRKYGINEGELLDVQLMRSSRYASQLERIISPEGTYPLLGKSMAYRTGIFHLLAQAALFKILPRNMETSQVRSALTKVLRTQFGGHQNFDNKGWLTIGLNGCQAEIAEKDINTGSLYGCCAIFLPLGLSFNDSFWVGPFEEWTTLKAWNGNPVEPDQSIDFLEHHHHHH”, the “soluble on expression in E. coli” value was “not soluble”. For “MKTTPIPLRRDIILDGKWCAAMLKELESLYEGDIVINGQPEHPEDYEWFYTADGDEIGIAKHRLTEQERRLLALFFTPAERRREPESEEERAWKRWMATGDPAALARLAAPYCRFIHFTASRPIANKEEFADAVRGLFSSPVAIVWEQDRRGLIVEAKQKRTTEPPSLADMAEALAADFYTALHLLIGPIRSVDERLYESFLLEKECFSAARRFWPKRTVYEWEDVIPLPLFEEGAVSEKARRTLSFLDGFDEEEVRAMETFLQCNLNVSMAAKKLYMHRNSLQYRIDKWAEQTGVDIKRFKGAAAVYLAILHRRRS”, the “soluble on expression in E. coli” value was “not soluble”. With “MKTICVFAGSNPGGNEAYKRKAAELGVYMAEQGIGLVYGGSRVGLMGTIADAIMENGGTAIGVMPSGLFSGEVVHQNLTELIEVNGMHERKAKMSELADGFISMPGGFGTYEELFEVLCWAQIGIHQKPIGLYNVNGYFEPMMKMVKYSIQEGFSNESHLKLIHSSSRPDELIEQMQNYSYPILEKKWTEI” the “soluble on expression in E. coli” value was “soluble”. For “MDRVALKPFRRIAVILLAGAVIATSTSCSRDERKKEEEKHLESMMSILVQVQKNLGRIRQKEAVVVRLSSDVEGRKPKSAEQIGREINTNIRFIDSTLSASKNLVATLEKQNHESQYRIAALDRMTGQLKGELDKKELELGAMKREIAKLNRQIARLTNTVDVMDEAISDQEDQMVKAYYVVGTVDQLVSKGILVPPGPFSRFFGMRPVLANDFDLRPFRQVDITETKDIYFDKPVSRLHVITPHTKGSYELVGGKTSSLLLIRNEAEFWKKSRCLVIVVE”, the “soluble on expression in E. coli” value was “not soluble”. With “MAEGEDVGWWRSWLQQSYQAVKEKSSEALEFMKRDLTEFTQVVQHDTACTIAATASVVKEKLATEGSSGATEKMKKGLSDFLGVISDTFAPSPDKTIDCDVITLMGTPSGTAEPYDGTKARLYSLQSDPATYCNEPDGPPELFDAWLSQFCLEEKKGGISELLVGSPSIRALYTKMVPAAVSHSEFWHRYFYKVHQLEQEQARRDALKQRAEQSISEEPGWEEEEEELMGISPISPKEAKVPVAKISTFPEGEPGPQSPCEENLVTSVEPPAEVTPSESSESISLVTQIANPATAPEARVLPKDLSQKLLEASLEEQGLAVDVGETGPSPPIHSKPLTPAGHTGGPEPRPPARVETLREEAPTDLRVFELNSDSGKSTPSNNGKKGSSTDISEDWEKDFDLDMTEEEVQMALSKVDASGELEDVEWEDWE” the “soluble on expression in E. coli” value was “soluble”.
